# Data as given in patent US20150147278A1 (KINKI UNIVERSITY, published 2015).
# Target: T1, human LAT1/CD98 complex (human, UniProt Q01650 1-507; P08195 2-529)
# T1 construct: whole, on cells; Disulfide-bonded heterodimer, endogenous on human tumor cell lines (HCT116, NCI-H1944, A549, HeLa); No purified or transfected antigen was used; also called LAT1/CD98 complex protein; LAT1/4F2hc
# Assay: flow cytometry on human tumor cell lines, antibody prepared at 40 µg/mL; reference LGtra01-01
# Experimental: Using four types of human tumor cell lines, the anti-LAT1/CD98 monoclonal antibodies were measured for their binding ability by FCM analysis. The human tumor cell lines were each adjusted with PBS to 1×10⁵ cells/well and dispensed into tubes in 50 μL volumes. To this cell suspension, 50 μL of each monoclonal antibody prepared at 40 μg/mL was added and reacted at 4° C. for 45 minutes. After washing three times by addition of 0.1% BSA-PBS (100 μL) and the subsequent centrifugation at 500 g for 3 minutes at 4° C., the cell pellets were each supplemented with 50 μL of 200-fold diluted PE-labeled anti-rat IgG (Jackson Immuno Research) and reacted under light-shielded conditions at 4° C. for 45 minutes. After washing three times by addition of 0.1% BSA-PBS (100 μL) and the subsequent centrifugation at 500 g for 3 minutes at 4° C., the cells were suspended in PBS (500 μL) and then transferred to FCM tubes. PI (100 μL) was added immediately before measurement to remove dead cells, followed by measurement with a FACS calibur (Becton Dickinson).
# T1 sequence (Q01650 whole entry, chain 1 of 2): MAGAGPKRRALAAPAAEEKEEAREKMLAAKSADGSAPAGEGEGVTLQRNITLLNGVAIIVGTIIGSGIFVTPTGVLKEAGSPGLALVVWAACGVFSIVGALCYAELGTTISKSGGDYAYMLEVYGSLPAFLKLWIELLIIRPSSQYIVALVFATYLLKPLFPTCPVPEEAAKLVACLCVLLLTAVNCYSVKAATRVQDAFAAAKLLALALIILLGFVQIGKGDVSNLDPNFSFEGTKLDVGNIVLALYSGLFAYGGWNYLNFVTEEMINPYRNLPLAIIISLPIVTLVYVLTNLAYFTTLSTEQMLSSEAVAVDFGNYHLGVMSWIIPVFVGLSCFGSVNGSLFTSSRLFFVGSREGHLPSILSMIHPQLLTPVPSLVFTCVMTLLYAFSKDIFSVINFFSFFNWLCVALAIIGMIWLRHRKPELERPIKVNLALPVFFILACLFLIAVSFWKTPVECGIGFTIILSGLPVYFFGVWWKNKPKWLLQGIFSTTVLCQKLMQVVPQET
# T1 sequence (P08195 103-630, chain 2 of 2): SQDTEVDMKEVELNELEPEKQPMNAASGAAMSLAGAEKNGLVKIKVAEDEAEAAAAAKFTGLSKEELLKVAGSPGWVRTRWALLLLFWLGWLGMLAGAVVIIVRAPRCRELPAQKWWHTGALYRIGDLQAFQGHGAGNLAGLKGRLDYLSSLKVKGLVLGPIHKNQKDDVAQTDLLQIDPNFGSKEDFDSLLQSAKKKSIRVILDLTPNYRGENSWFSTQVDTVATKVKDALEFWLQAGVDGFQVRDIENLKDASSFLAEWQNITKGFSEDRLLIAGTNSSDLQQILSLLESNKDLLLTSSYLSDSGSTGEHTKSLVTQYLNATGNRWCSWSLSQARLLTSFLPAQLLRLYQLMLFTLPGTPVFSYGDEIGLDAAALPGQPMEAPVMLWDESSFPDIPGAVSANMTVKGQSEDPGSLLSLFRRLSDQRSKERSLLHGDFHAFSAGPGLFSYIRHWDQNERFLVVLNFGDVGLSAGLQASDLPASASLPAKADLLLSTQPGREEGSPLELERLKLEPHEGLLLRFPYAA
row,fold higher binding activity than LGtra01-01 monoclonal antibody,Binder
1,≥ 10 fold,"LG9111 monoclonal antibody (antibody, V domains shown, Rat monoclonal antibody from a hybridoma, purified from ascites with Protein G and detected with anti-rat IgG; also called anti-LAT1/CD98 monoclonal antibody) VH: QLQLKESGPGLVQPSQTLSLTCTVSGFSLPTSSVSWIRQPPGKGLEWMGVIWSNGNTDYSSAIKSRLSISRDTSKSQVFLKMNSLQTEDTARYFCARNFRNDPGVMDAWGQGASVTVSS VL: NIVMTQSPRSMSLSGGDRVTMNCRASQNVGNNVAWYQQRPGQSPKLLISYASNRNTGVPGRFTGSGSGTDFTLTISSVQAEDAAFYYCQRIYKSPYTFGGGTKLELKR"
2,≥ 10 fold,"LG9113 monoclonal antibody (antibody, V domains shown, Rat monoclonal antibody from a hybridoma, purified from ascites with Protein G and detected with anti-rat IgG; also called anti-LAT1/CD98 monoclonal antibody) VH: QMQLKESGPGLVQPSQTLSLTCAVSGFSLPTSSVSWIRQSPGKGLEWMGVIWSNGNTDYSSRFKSRLSISRDTAKSQVFLKMNSLQTEDTAMYFCARNFRNDPGVMDAWGQGASVTVSS VL: NIVMTQSPKSMSISVGDRVTMNCKASQTVGNNVAWYQQKPGLSPKLLISYASSRHTGVPDRFTGRGSGADFTLTINGVQAEDAAFYYCQRVYKSPYTFGGGTKLELKR"

# The remaining lines, values behind:
row,Binder,fold higher binding activity than LGtra01-01 monoclonal antibody
1,"LG9112 monoclonal antibody (antibody, V domains shown, Rat monoclonal antibody from a hybridoma, purified from ascites with Protein G and detected with anti-rat IgG; also called anti-LAT1/CD98 monoclonal antibody) VH: QMQLKESGPGLVQPSQTLSLTCAVSGFSLPTSSVSWIRQSPGKGLEWMGVIWSNGNTDYSSRFKSRLSISRDTAKSQVFLKMNSLQAEDTAMYFCARNFRNDPGVMDAWGQGASVTVSS VL: NIVMTQSPKSMSISVGDRVTMNCKASQNVGNNVAWYQQKPGLSPKLLISYASSRHTGVPDRFTGRGSGADFTLTINGVQAEDAAFYYCQRVYKSPYTFGGGTKLELKR",≥ 10 fold
2,"LG9114 monoclonal antibody (antibody, V domains shown, Rat monoclonal antibody from a hybridoma, purified from ascites with Protein G and detected with anti-rat IgG; also called anti-LAT1/CD98 monoclonal antibody) VH: QMQLKESGPGLVQPSQTLSLTCAVSGFSLPTSSVSWIRQSPGKGLEWMGVIWSNGNTDYSSRIKSRLSISRDTSKSQVFLKMNSLQTEDTAMYFCARNFRNNPGVMDAWGQGASVTVSS VL: NIVMTQSPKSMSISVGDRVTMNCKASQNVGNNVAWYQQKPGLSPKLLIYYASSRHTGVPDRFTGSGSGADFTLTINSVQAEDAAFYYCQRVYKSPYTFGGGTKLELKR",≥ 10 fold
